What all share (experiment): Yeast two hybrid (Y2H) analysis of PCNA-partner interaction
Holding throughout (type): binding
Holding throughout (set-up): key: ++: major increase in growth; +: moderate increase in growth; similar growth as the WT PCNA-expressing cells; -: minor decrease in growth; --: moderate decrease in growth; ---: major decrease in growth
Common to all, as to conditions: spotting onto selective agar plates; PCNA fused to AD, partner to BD

One experiment has as its system Apn2. Here is the method:
(§1) Y2H analysis was performed using the Yeast Two Hybrid Phagemid vector kit (Stratagene), following the manufacturer's instructions. The pAD-PCNA-WT/mutant plasmids were used as bait while plasmids encoding 12 different PCNA partners (Table 1 and Table S1) were used as prey. The YRG2 host strain (Stratagene) was cotransformed with pAD-PCNA WT/mutant and pBD-partner plasmids in all possible combinations using the LiAC method. Single transformants were grown in liquid SC-Leu-Trp to O.D600 10, washed twice with DDW, and diluted to an initial OD600 of 0.3. A series of 10-fold serial dilutions was then spotted onto selective SC-Leu-Trp-His plates and incubated at 30°C for 3 d. For quantitative Y2H, the generation time of the indicated mutants and their respective partners were calculated from their growth curves in liquid SC-Leu-Trp-His media. Cells were grown overnight in SC-Leu-Trp, washed twice with ddH2O, and diluted by a factor of 1∶50 into 10 ml of pre-warmed SC-Leu-Trp-His. O.D600 measurements of the cultures were taken at the indicated time; the generation time (τ) was calculated from the growth curves according to the equation ODt = OD0×2^t/τ. The generation time calculated for each culture is an average of at least 3 independent experiments.
(§2) Table S1: Yeast two hybrid analysis of binding of selected PCNA mutants with seven additional partners not described in Table 1 of the main text. […]
(§3) pol30-Rad30E2 WT WT WT WT WT WT - pol30-Rad30E9 WT WT WT WT WT WT WT pol30-Rad27E6 WT WT WT WT + WT WT pol30-Rad27E31 WT WT WT WT + WT WT pol30-Rad27L1 WT -- WT WT -- WT WT pol30-Rad27L2 WT -- WT WT -- WT WT pol30-Pol32E5 WT WT WT WT WT WT WT pol30-Pol32E9 - WT WT WT WT WT WT pol30-Msh6E2 WT WT + WT WT WT WT pol30-Msh6E6 WT WT ++ WT WT WT WT pol30-Ung1E3 WT - WT WT WT WT WT pol30-79 --- --- --- - --- --- --- a PCNA mutants with enhanced affinities for the different target partners (see Table 1, text). b PCNA mutants were fused to the activating domain (AD), while the different partners were fused to the DNA-binding domain (BD). The growth of the resulting Y2H strains was compared to the growth of the WT PCNA-expressing strain following spotting onto selective agar plates (see Material and Methods). Growth rates on the agar plates were scored and tabulated as follows: ++ major increase in growth; + moderate increase in growth; WT-similar growth as the WT PCNA-expressing cells; - minor decrease in growth; -- moderate decrease in growth; --- major decrease in growth. ND-Not determined.

The next experiment concerns Cdc9. The method, then: as §1, §2, §3
In another experiment the test system is Msh3. The method, then:
as §1, §2, §3

A further experiment deals with Eco1. Here is the method:
as §1, §2, §3

The subject of the next experiment is Rfc1. The method, then:
as §1, §2, §3

Another experiment relates to Rrm3. Here is the method: as §1, §2, §3
The subject of a further experiment is Cac1. The method, then: as §1, §2, §3

Results on six molecules are retold here after paper PMC2953525, “Subtle Alterations in PCNA-Partner Interactions Severely Impair DNA Replication and Repair” (PLoS Biology, 2010).

B1: pol30-79: previously studied PCNA mutant with decreased partner binding, IDCL sequence DIDADFAKAEEL (protein)
chain: MLEAKFEEASLFKRIIDGFKDCVQLVNFQCKEDGIIAQAVDDSRVLLVSLEIGVEAFQEYRCDHPVTLGMDLTSLSKILRCGNNTDTLTLIADNTPDSIILLFEDTKKDRIAEYSLKLMDIDADFAKAEELQYDSTLSLPSSEFSKIVRDLSQLSDSINIMITKETIKFVADGDIGSGSVIIKPFVDMEHPETSIKLEMDQPVDLTFGAKYLLDIIKGSSLSDRVGIRLSSEAPALFQFDLKSGFLQFFLAPKFNDEE
modifications: left off: Gal4 activation domain, end not stated, kept
Consider B1, for which the “Y2H growth relative to WT PCNA-expressing strain: Apn2” value in the experiment with Apn2 was “---”. For the same molecule, the “Y2H growth relative to WT PCNA-expressing strain: Cdc9” value in the experiment on Cdc9 is reported as “---”. Besides, in the experiment on Msh3, the “Y2H growth relative to WT PCNA-expressing strain: Msh3” value is on record as “---”. In addition, in the experiment on Eco1, the “Y2H growth relative to WT PCNA-expressing strain: Eco1” value is given as “---”. In addition, the “Y2H growth relative to WT PCNA-expressing strain: Rfc1” value in the experiment on Rfc1 is “-”. In addition, the “Y2H growth relative to WT PCNA-expressing strain: Rrm3” value in the experiment with Rrm3 is recorded as “---”. Moreover, the “Y2H growth relative to WT PCNA-expressing strain: Cac1” value with Cac1 is reported as “---”.

B2: pol30-Rad27E6: PCNA mutant evolved for Rad27, IDCL sequence DGDYDILKIREL (protein)
chain: MLEAKFEEASLFKRIIDGFKDCVQLVNFQCKEDGIIAQAVDDSRVLLVSLEIGVEAFQEYRCDHPVTLGMDLTSLSKILRCGNNTDTLTLIADNTPDSIILLFEDTKKDRIAEYSLKLMDGDYDILKIRELQYDSTLSLPSSEFSKIVRDLSQLSDSINIMITKETIKFVADGDIGSGSVIIKPFVDMEHPETSIKLEMDQPVDLTFGAKYLLDIIKGSSLSDRVGIRLSSEAPALFQFDLKSGFLQFFLAPKFNDEE
modifications: left off: Gal4 activation domain, end not stated, kept
As for B2, the “Y2H growth relative to WT PCNA-expressing strain: Apn2” value in the experiment with Apn2 was “WT”. Also, the “Y2H growth relative to WT PCNA-expressing strain: Cdc9” value in the experiment with Cdc9 was “WT”. Also, the “Y2H growth relative to WT PCNA-expressing strain: Msh3” value with Msh3 was “WT”. The “Y2H growth relative to WT PCNA-expressing strain: Eco1” value in the experiment on Eco1 is “WT”. The “Y2H growth relative to WT PCNA-expressing strain: Rfc1” value with Rfc1 is “WT”. Moreover, the “Y2H growth relative to WT PCNA-expressing strain: Rrm3” value in the experiment on Rrm3 was “WT”. In addition, the “Y2H growth relative to WT PCNA-expressing strain: Cac1” value in the experiment on Cac1 is given as “+”.

B3: pol30-Rad30E2: PCNA mutant evolved for Rad30, IDCL sequence DDDWDFLKILEL (protein)
chain: MLEAKFEEASLFKRIIDGFKDCVQLVNFQCKEDGIIAQAVDDSRVLLVSLEIGVEAFQEYRCDHPVTLGMDLTSLSKILRCGNNTDTLTLIADNTPDSIILLFEDTKKDRIAEYSLKLMDDDWDFLKILELQYDSTLSLPSSEFSKIVRDLSQLSDSINIMITKETIKFVADGDIGSGSVIIKPFVDMEHPETSIKLEMDQPVDLTFGAKYLLDIIKGSSLSDRVGIRLSSEAPALFQFDLKSGFLQFFLAPKFNDEE
modifications: left off: Gal4 activation domain, end not stated, kept
Turning to B3, in the experiment on Apn2, the “Y2H growth relative to WT PCNA-expressing strain: Apn2” value was “-”. The “Y2H growth relative to WT PCNA-expressing strain: Cdc9” value in the experiment on Cdc9 is given as “WT”. Moreover, in the experiment on Msh3, the “Y2H growth relative to WT PCNA-expressing strain: Msh3” value is on record as “WT”. Moreover, the “Y2H growth relative to WT PCNA-expressing strain: Eco1” value in the experiment on Eco1 is reported as “WT”. Moreover, the “Y2H growth relative to WT PCNA-expressing strain: Rfc1” value with Rfc1 is “WT”. In the experiment with Rrm3, the “Y2H growth relative to WT PCNA-expressing strain: Rrm3” value was “WT”. Besides, the “Y2H growth relative to WT PCNA-expressing strain: Cac1” value with Cac1 is “WT”.

B4: pol30-Msh6E2: PCNA mutant evolved for Msh6, IDCL sequence DYDRDMLKISEL (protein)
chain: MLEAKFEEASLFKRIIDGFKDCVQLVNFQCKEDGIIAQAVDDSRVLLVSLEIGVEAFQEYRCDHPVTLGMDLTSLSKILRCGNNTDTLTLIADNTPDSIILLFEDTKKDRIAEYSLKLMDYDRDMLKISELQYDSTLSLPSSEFSKIVRDLSQLSDSINIMITKETIKFVADGDIGSGSVIIKPFVDMEHPETSIKLEMDQPVDLTFGAKYLLDIIKGSSLSDRVGIRLSSEAPALFQFDLKSGFLQFFLAPKFNDEE
modifications: left off: Gal4 activation domain, end not stated, kept
B4: the “Y2H growth relative to WT PCNA-expressing strain: Apn2” value in the experiment on Apn2 is reported as “WT”. The “Y2H growth relative to WT PCNA-expressing strain: Cdc9” value in the experiment with Cdc9 is on record as “WT”. In addition, in the experiment with Msh3, the “Y2H growth relative to WT PCNA-expressing strain: Msh3” value is recorded as “+”. For the same molecule, the “Y2H growth relative to WT PCNA-expressing strain: Eco1” value with Eco1 is on record as “WT”. Further, the “Y2H growth relative to WT PCNA-expressing strain: Rfc1” value in the experiment with Rfc1 is given as “WT”. The “Y2H growth relative to WT PCNA-expressing strain: Rrm3” value with Rrm3 is “WT”. Further, the “Y2H growth relative to WT PCNA-expressing strain: Cac1” value with Cac1 is listed as “WT”.

B5: pol30-Pol32E5: PCNA mutant evolved for Pol32, IDCL sequence DADNDFLKISEL (protein)
chain: MLEAKFEEASLFKRIIDGFKDCVQLVNFQCKEDGIIAQAVDDSRVLLVSLEIGVEAFQEYRCDHPVTLGMDLTSLSKILRCGNNTDTLTLIADNTPDSIILLFEDTKKDRIAEYSLKLMDADNDFLKISELQYDSTLSLPSSEFSKIVRDLSQLSDSINIMITKETIKFVADGDIGSGSVIIKPFVDMEHPETSIKLEMDQPVDLTFGAKYLLDIIKGSSLSDRVGIRLSSEAPALFQFDLKSGFLQFFLAPKFNDEE
modifications: left off: Gal4 activation domain, end not stated, kept
In the case of B5, in the experiment with Apn2, the “Y2H growth relative to WT PCNA-expressing strain: Apn2” value is “WT”. Moreover, the “Y2H growth relative to WT PCNA-expressing strain: Cdc9” value in the experiment on Cdc9 is “WT”. The “Y2H growth relative to WT PCNA-expressing strain: Msh3” value with Msh3 is on record as “WT”. Further, the “Y2H growth relative to WT PCNA-expressing strain: Eco1” value in the experiment on Eco1 is “WT”. Besides, the “Y2H growth relative to WT PCNA-expressing strain: Rfc1” value with Rfc1 is listed as “WT”. For the same molecule, the “Y2H growth relative to WT PCNA-expressing strain: Rrm3” value in the experiment with Rrm3 is listed as “WT”. In addition, the “Y2H growth relative to WT PCNA-expressing strain: Cac1” value in the experiment on Cac1 is given as “WT”.

B6: pol30-Rad30E9: PCNA mutant evolved for Rad30, IDCL sequence DNDWDFLKIDEL (protein)
chain: MLEAKFEEASLFKRIIDGFKDCVQLVNFQCKEDGIIAQAVDDSRVLLVSLEIGVEAFQEYRCDHPVTLGMDLTSLSKILRCGNNTDTLTLIADNTPDSIILLFEDTKKDRIAEYSLKLMDNDWDFLKIDELQYDSTLSLPSSEFSKIVRDLSQLSDSINIMITKETIKFVADGDIGSGSVIIKPFVDMEHPETSIKLEMDQPVDLTFGAKYLLDIIKGSSLSDRVGIRLSSEAPALFQFDLKSGFLQFFLAPKFNDEE
modifications: left off: Gal4 activation domain, end not stated, kept
B6: in the experiment with Apn2, the “Y2H growth relative to WT PCNA-expressing strain: Apn2” value is recorded as “WT”. Besides, in the experiment on Cdc9, the “Y2H growth relative to WT PCNA-expressing strain: Cdc9” value is on record as “WT”. The “Y2H growth relative to WT PCNA-expressing strain: Msh3” value with Msh3 is reported as “WT”. Also, the “Y2H growth relative to WT PCNA-expressing strain: Eco1” value in the experiment with Eco1 is reported as “WT”. Further, in the experiment on Rfc1, the “Y2H growth relative to WT PCNA-expressing strain: Rfc1” value is “WT”. In the experiment with Rrm3, the “Y2H growth relative to WT PCNA-expressing strain: Rrm3” value is listed as “WT”. Moreover, the “Y2H growth relative to WT PCNA-expressing strain: Cac1” value with Cac1 is recorded as “WT”.
